IntAct's records for PubMed 28533443

B1: Complement factor H-related protein 1 (Homo sapiens), Q03591 (parent)
chain: MWLLVSVILISRISSVGGEATFCDFPKINHGILYDEEKYKPFSQVPTGEVFYYSCEYNFVSPSKSFWTRITCTEEGWSPTPKCLRLCFFPFVENGHSESSGQTHLEGDTVQIICNTGYRLQNNENNISCVERGWSTPPKCRSTDTSCVNPPTVQNAHILSRQMSKYPSGERVRYECRSPYEMFGDEEVMCLNGNWTEPPQCKDSTGKCGPPPPIDNGDITSFPLSVYAPASSVEYQCQNLYQLEGNKRITCRNGQWSEPPKCLHPCVISREIMENYNIALRWTAKQKLYLRTGESAEFVCKRGYRLSSRSHTLRTTCWDGKLEYPTCAKR
partner: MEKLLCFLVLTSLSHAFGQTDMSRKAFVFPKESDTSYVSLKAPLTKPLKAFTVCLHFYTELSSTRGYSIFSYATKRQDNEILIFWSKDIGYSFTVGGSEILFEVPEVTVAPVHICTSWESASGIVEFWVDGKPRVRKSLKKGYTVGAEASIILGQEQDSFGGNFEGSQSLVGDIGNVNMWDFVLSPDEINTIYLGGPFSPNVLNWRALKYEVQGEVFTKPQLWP

Variants of: B1
Settings: with crp_human CRP

Question: MWLLVSVILISRISSVGGEATFCDFPKINHGILYDEEKYKPFSQVPTGEVFYYSCEYNFVSPSKSFWTRITCTEEGWSPTPKCLRLCFFPFVENGHSESSGQTHLEGDTVQIICNTGYRLQNNENNISCVERGWSTPPKCRSTDTSCVNPPTVQNAYIVSRQMSKYPSGERVRYQCRSPYEMFGDEEVMCLNGNWTEPPQCKDSTGKCGPPPPIDNGDITSFPLSVYAPASSVEYQCQNLYQLEGNKRITCRNGQWSEPPKCLHPCVISREIMENYNIALRWTAKQKLYLRTGESAEFVCKRGYRLSSRSHTLRTTCWDGKLEYPTCAKR [H157Y;L159V;E175Q] was tested. Which “effect of a mutation on the interaction” value did it give?
Answer: with no effect
